Series [1] is described as follows: confocal imaging of Flag tag, transfected NIH-3T3 cells. Conditions: glycan lost; control: wild-type Tlr2-Flag.
Series [2] is described as follows: confocal immunofluorescence of Tlr2, RAW264.7 cells. Particulars: control: untreated RAW264.7 cells.

B1: Tlr2: N414Q/N442Q (protein)
parent chain: MLRALWLFWILVAITVLFSKRCSAQESLSCDASGVCDGRSRSFTSIPSGLTAAMKSLDLSFNKITYIGHGDLRACANLQVLILKSSRINTIEGDAFYSLGSLEHLDLSDNHLSSLSSSWFGPLSSLKYLNLMGNPYQTLGVTSLFPNLTNLQTLRIGNVETFSEIRRIDFAGLTSLNELEIKALSLRNYQSQSLKSIRDIHHLTLHLSESAFLLEIFADILSSVRYLELRDTNLARFQFSPLPVDEVSSPMKKLAFRGSVLTDESFNELLKLLRYILELSEVEFDDCTLNGLGDFNPSESDVVSELGKVETVTIRRLHIPQFYLFYDLSTVYSLLEKVKRITVENSKVFLVPCSFSQHLKSLEFLDLSENLMVEEYLKNSACKGAWPSLQTLVLSQNHLRSMQKTGEILLTLKNLTSLDISRNTFHPMPDSCQWPEKMRFLNLSSTGIRVVKTCIPQTLEVLDVSNNNLDSFSLFLPRLQELYISRNKLKTLPDASLFPVLLVMKIRENAVSTFSKDQLGSFPKLETLEAGDNHFVCSCELLSFTMETPALAQILVDWPDSYLCDSPPRLHGHRLQDARPSVLECHQAALVSGVCCALLLLILLVGALCHHFHGLWYLRMMWAWLQAKRKPKKAPCRDVCYDAFVSYSEQDSHWVENLMVQQLENSDPPFKLCLHKRDFVPGKWIIDNIIDSIEKSHKTVFVLSENFVRSEWCKYELDFSHFRLFDENNDAAILVLLEPIERKAIPQRFCKLRKIMNTKTYLEWPLDEGQQEVFWVNLRTAIKS
Turning to B1, in series [1], the localisation_or_trafficking result was “decreases”.

B2: Tlr2: tunicamycin (protein)
parent chain: MLRALWLFWILVAITVLFSKRCSAQESLSCDASGVCDGRSRSFTSIPSGLTAAMKSLDLSFNKITYIGHGDLRACANLQVLILKSSRINTIEGDAFYSLGSLEHLDLSDNHLSSLSSSWFGPLSSLKYLNLMGNPYQTLGVTSLFPNLTNLQTLRIGNVETFSEIRRIDFAGLTSLNELEIKALSLRNYQSQSLKSIRDIHHLTLHLSESAFLLEIFADILSSVRYLELRDTNLARFQFSPLPVDEVSSPMKKLAFRGSVLTDESFNELLKLLRYILELSEVEFDDCTLNGLGDFNPSESDVVSELGKVETVTIRRLHIPQFYLFYDLSTVYSLLEKVKRITVENSKVFLVPCSFSQHLKSLEFLDLSENLMVEEYLKNSACKGAWPSLQTLVLSQNHLRSMQKTGEILLTLKNLTSLDISRNTFHPMPDSCQWPEKMRFLNLSSTGIRVVKTCIPQTLEVLDVSNNNLDSFSLFLPRLQELYISRNKLKTLPDASLFPVLLVMKIRENAVSTFSKDQLGSFPKLETLEAGDNHFVCSCELLSFTMETPALAQILVDWPDSYLCDSPPRLHGHRLQDARPSVLECHQAALVSGVCCALLLLILLVGALCHHFHGLWYLRMMWAWLQAKRKPKKAPCRDVCYDAFVSYSEQDSHWVENLMVQQLENSDPPFKLCLHKRDFVPGKWIIDNIIDSIEKSHKTVFVLSENFVRSEWCKYELDFSHFRLFDENNDAAILVLLEPIERKAIPQRFCKLRKIMNTKTYLEWPLDEGQQEVFWVNLRTAIKS
On to B2, for which the localisation_or_trafficking entry in series [2] (glycan lost) is recorded as “decreases”.

B3: Tlr2: swainsonine (protein)
parent chain: MLRALWLFWILVAITVLFSKRCSAQESLSCDASGVCDGRSRSFTSIPSGLTAAMKSLDLSFNKITYIGHGDLRACANLQVLILKSSRINTIEGDAFYSLGSLEHLDLSDNHLSSLSSSWFGPLSSLKYLNLMGNPYQTLGVTSLFPNLTNLQTLRIGNVETFSEIRRIDFAGLTSLNELEIKALSLRNYQSQSLKSIRDIHHLTLHLSESAFLLEIFADILSSVRYLELRDTNLARFQFSPLPVDEVSSPMKKLAFRGSVLTDESFNELLKLLRYILELSEVEFDDCTLNGLGDFNPSESDVVSELGKVETVTIRRLHIPQFYLFYDLSTVYSLLEKVKRITVENSKVFLVPCSFSQHLKSLEFLDLSENLMVEEYLKNSACKGAWPSLQTLVLSQNHLRSMQKTGEILLTLKNLTSLDISRNTFHPMPDSCQWPEKMRFLNLSSTGIRVVKTCIPQTLEVLDVSNNNLDSFSLFLPRLQELYISRNKLKTLPDASLFPVLLVMKIRENAVSTFSKDQLGSFPKLETLEAGDNHFVCSCELLSFTMETPALAQILVDWPDSYLCDSPPRLHGHRLQDARPSVLECHQAALVSGVCCALLLLILLVGALCHHFHGLWYLRMMWAWLQAKRKPKKAPCRDVCYDAFVSYSEQDSHWVENLMVQQLENSDPPFKLCLHKRDFVPGKWIIDNIIDSIEKSHKTVFVLSENFVRSEWCKYELDFSHFRLFDENNDAAILVLLEPIERKAIPQRFCKLRKIMNTKTYLEWPLDEGQQEVFWVNLRTAIKS
For B3, the localisation_or_trafficking result in series [2] (glycan changed form) is given as “changes”.

B4: Tlr2: kifunensine (protein)
parent chain: MLRALWLFWILVAITVLFSKRCSAQESLSCDASGVCDGRSRSFTSIPSGLTAAMKSLDLSFNKITYIGHGDLRACANLQVLILKSSRINTIEGDAFYSLGSLEHLDLSDNHLSSLSSSWFGPLSSLKYLNLMGNPYQTLGVTSLFPNLTNLQTLRIGNVETFSEIRRIDFAGLTSLNELEIKALSLRNYQSQSLKSIRDIHHLTLHLSESAFLLEIFADILSSVRYLELRDTNLARFQFSPLPVDEVSSPMKKLAFRGSVLTDESFNELLKLLRYILELSEVEFDDCTLNGLGDFNPSESDVVSELGKVETVTIRRLHIPQFYLFYDLSTVYSLLEKVKRITVENSKVFLVPCSFSQHLKSLEFLDLSENLMVEEYLKNSACKGAWPSLQTLVLSQNHLRSMQKTGEILLTLKNLTSLDISRNTFHPMPDSCQWPEKMRFLNLSSTGIRVVKTCIPQTLEVLDVSNNNLDSFSLFLPRLQELYISRNKLKTLPDASLFPVLLVMKIRENAVSTFSKDQLGSFPKLETLEAGDNHFVCSCELLSFTMETPALAQILVDWPDSYLCDSPPRLHGHRLQDARPSVLECHQAALVSGVCCALLLLILLVGALCHHFHGLWYLRMMWAWLQAKRKPKKAPCRDVCYDAFVSYSEQDSHWVENLMVQQLENSDPPFKLCLHKRDFVPGKWIIDNIIDSIEKSHKTVFVLSENFVRSEWCKYELDFSHFRLFDENNDAAILVLLEPIERKAIPQRFCKLRKIMNTKTYLEWPLDEGQQEVFWVNLRTAIKS
On to B4, for which the localisation_or_trafficking entry in series [2] (glycan changed form) is “changes”.

The values are drawn from PMC8416091.
